# Experimental data taken from publication PMC1635294.
# Where two headings read alike, the source gives them in different places.
# Assays:
# [1] = biological target: T1, SLBP (HBP), His-tagged (human, UniProt Q14493 1-270); experiment: competition
# [2] = biological target: T1, SLBP (HBP), His-tagged; experiment: competition; remark: listed apart in the source
Binder,binding result [1],binding result [2]
GGAGCUCAACAAAACCGGAAAGCCUUCCGGACCC (structured_RNA) [mutated stem-loop competitor (*)],no binding,
GGAGCUCAACAAAAGGCCCUUUUCAGGGCCACCC (structured_RNA) [wild-type stem-loop competitor],,binds
